Measurements: article PMC7058303

Target: Sus1 from S. cerevisiae (recombinant) (Saccharomyces cerevisiae) (UniProt Q6WNK7)
Assay: SEC; Superdex 75 10/300 GL, calibrated with molecular weight markers; non-dissociating conditions; elution volume 12 ml

stoichiometry N: 3
Substance: Sus1 from S. cerevisiae (recombinant) (from UniProt Q6WNK7 1-96) (natural protein)
